# Experimental data as given in US6127332.
# T1: interferon receptors on Daudi cells and A549 cells (Homo sapiens (Human)) (UniProt P17181)
# T1 sequence 1: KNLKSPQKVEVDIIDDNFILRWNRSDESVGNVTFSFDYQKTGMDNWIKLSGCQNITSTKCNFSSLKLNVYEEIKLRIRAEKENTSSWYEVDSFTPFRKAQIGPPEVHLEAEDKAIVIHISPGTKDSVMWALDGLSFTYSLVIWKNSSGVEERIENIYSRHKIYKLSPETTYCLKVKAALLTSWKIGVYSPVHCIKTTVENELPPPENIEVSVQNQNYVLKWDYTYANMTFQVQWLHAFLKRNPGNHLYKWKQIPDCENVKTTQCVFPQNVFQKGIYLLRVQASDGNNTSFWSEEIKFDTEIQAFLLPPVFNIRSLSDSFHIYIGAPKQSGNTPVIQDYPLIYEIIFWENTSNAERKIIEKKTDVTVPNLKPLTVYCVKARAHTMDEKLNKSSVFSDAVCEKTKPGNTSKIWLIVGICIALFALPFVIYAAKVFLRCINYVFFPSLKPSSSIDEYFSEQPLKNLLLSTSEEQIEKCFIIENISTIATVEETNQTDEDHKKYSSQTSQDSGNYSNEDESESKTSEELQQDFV
# T1 sequence 2: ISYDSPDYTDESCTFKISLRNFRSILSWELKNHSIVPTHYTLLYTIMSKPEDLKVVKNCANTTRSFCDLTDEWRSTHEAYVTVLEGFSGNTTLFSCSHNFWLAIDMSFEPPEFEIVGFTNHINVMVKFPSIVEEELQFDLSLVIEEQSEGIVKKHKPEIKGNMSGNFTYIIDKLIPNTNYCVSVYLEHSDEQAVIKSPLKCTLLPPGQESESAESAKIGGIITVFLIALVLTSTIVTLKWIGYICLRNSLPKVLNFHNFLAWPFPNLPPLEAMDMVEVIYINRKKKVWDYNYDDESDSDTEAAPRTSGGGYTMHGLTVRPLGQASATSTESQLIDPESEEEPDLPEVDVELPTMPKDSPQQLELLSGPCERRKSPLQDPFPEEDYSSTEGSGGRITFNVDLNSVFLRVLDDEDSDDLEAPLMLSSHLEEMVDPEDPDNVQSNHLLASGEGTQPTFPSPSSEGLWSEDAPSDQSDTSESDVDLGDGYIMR
# Key:
# [1] = target: T1, interferon receptors on Daudi cells and A549 cells (Homo sapiens (Human))
# [2] = target: T1, interferon receptors on Daudi cells and A549 cells (Homo sapiens (Human)); remark: listed apart in the source
specific activity in the Cytopathic Effect (CPE) assay for antiviral activity (EMC virus) [1],specific activity in the antiviral assay relative to recombinant wild type IFN-β [2],Molecule
2e+08 units/mg,–,wild type recombinant IFN-β (ligand)
4.8e+08 U/mg,2.5 fold,"IFN-β(phe101) (ligand, 125I label (chloramine T method) where used as the labelled ligand in the receptor binding assay; unlabelled as competitor and in the antiviral assays) MSYNLLGFLQRSSNFQCQKLLWQLNGRLEYCLKDRMNFDIPEEIKQLQQFQKEDAALTIYEMLQNIFAIFRQDSSSTGWNETIVENLLANVYHQINHLKTFLEEKLEKEDFTRGKLMSSLHLKRYYGRILHYLKAKEYSHCAWTIVRVEILRNFYFINRLTGYLRN"
